Ends that are not written are not given here. Peptide text beside a SMILES is read from it.

The nature of one series: peptide solubility. In kind it is physicochemical. The settings on record: effect of C-terminal tail.
A further series addresses HPVE6 (Human papillomavirus type 16, UniProt P03126). The settings on record: two-hybrid. An excerpt:
(§1) To identify IN-binding peptides, yeast producing HIV integrase was mated with yeast harboring a random peptide library (15 amino acids in length; 27 million diverse) fused to the VP16 activation domain. […] The peptide was cloned as a C-terminal fusion with VP16-Zsgreen and tested for interaction with the GALDB or GALDB-IN fusion in AH109 Mat a, trp1-901, leu2-3, 112, ura3-52, his3-200, gal4 Δ, gal 80Δ, LYS2::GAL1UAS-GAL1TATA-HIS3, GAL2UAS-GAL2TATA-ADE2, URA3:MEL1UAS-MEL1TATA-lacZ. Growth on -ade plates indicated activation of a selectable reporter.

In a further series the target is HPVE7 (Human papillomavirus type 16, UniProt P03129). The settings on record: two-hybrid.
Sequence of HPVE7 (P03129 whole entry): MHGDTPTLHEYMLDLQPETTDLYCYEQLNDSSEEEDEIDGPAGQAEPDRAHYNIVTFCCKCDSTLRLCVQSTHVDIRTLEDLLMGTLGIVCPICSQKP
Description: as §1

Series [1] has as its target T1, HIV IN (Human immunodeficiency virus type 1 group M subtype B, UniProt P12497). In kind it is biochemical. To be noted: summary statement.
Series [2] addresses T1, HIV IN. In words: yeast two-hybrid screen, growth on -ade plates. The settings on record: peptide fused to VP16 activation domain, GALDB-IN bait, FIG. 1. The series is classed as cell-based. On the set-up: HIV IN was amplified from the pNL4-3 based provirus (R9) as template and cloned into two expression vectors; expressed in transfected cells; host or cells: Saccharomyces cerevisiae AH109. The text has this: A yeast-based screening platform for identifying inhibitors of IN was constructed. In this platform, HIV IN was amplified from the pNL4-3 based provirus (R9) as template and cloned into two expression vectors resulting in a fusion of IN C-terminus to the GAL4 DNA binding domain (GALDB) and the GAL4 activation domain (GALAD) respectively. By western blot analysis, GALAD-IN was detected (not shown); however, GALDB-IN was barely detectable.
Binders were confirmed by plasmid linkage analysis (FIG. 1).

Sequence of HPVE6 (P03126 whole entry, the tested form may be a part): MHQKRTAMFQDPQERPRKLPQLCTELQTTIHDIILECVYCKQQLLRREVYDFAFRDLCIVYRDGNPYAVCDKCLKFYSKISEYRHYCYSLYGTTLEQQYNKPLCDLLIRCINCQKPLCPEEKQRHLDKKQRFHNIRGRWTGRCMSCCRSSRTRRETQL

Regarding `CC[C@H](C)[C@H](NC(=O)[C@H](CC(C)C)NC(=O)[C@@H](NC(=O)[C@@H](NC(=O)[C@H](CCC(=O)O)NC(=O)[C@H](Cc1ccc(O)cc1)NC(=O)[C@@H](N)CC(C)C)[C@@H](C)O)[C@@H](C)CC)C(=O)N[C@@H](CC(C)C)C(=O)N[C@@H](CC(C)C)C(=O)N[C@@H](Cc1ccccc1)C(=O)N[C@@H](CC(C)C)C(=O)N[C@@H](CC(=O)O)C(=O)N[C@H](C(=O)N[C@@H](CC(=O)O)C(=O)N[C@H](C(=O)NCC(=O)N[C@@H](CC(=O)O)C(=O)N[C@@H](CCC(=O)O)C(=O)N[C@@H](CC(=O)O)C(=O)O)[C@@H](C)O)C(C)C` [B05759] (H-LYETILILLFLDVDTGDED-OH; N-terminus and C-terminus assumed), in the series “peptide solubility”, the peptide solubility entry is “increased peptide solubility”.
Regarding LYETILILLFLDVDTG [SEQ ID NO:1], in the series with HPVE6, the “interaction with false bait HPVE6” value is “not false baits”. The “interaction with false bait HPVE7” value with HPVE7 is recorded as “not false baits”. In addition, the “inhibition of integration of viral DNA into target DNA” value with HIV IN [1] is on record as “inhibit the integration of viral DNA into the target DNA”. Besides, the “interaction with HIV IN by two-hybrid” value with HIV IN [2] is on record as “interacted with the viral target”.
Take `CC[C@H](C)[C@H](NC(=O)[C@H](CC(C)C)NC(=O)[C@@H](NC(=O)[C@@H](NC(=O)[C@H](CCC(=O)O)NC(=O)[C@H](Cc1ccc(O)cc1)NC(=O)[C@@H](N)CC(C)C)[C@@H](C)O)[C@@H](C)CC)C(=O)N[C@@H](CC(C)C)C(=O)N[C@@H](CC(C)C)C(=O)N[C@@H](Cc1ccccc1)C(=O)N[C@@H](CC(C)C)C(=O)N[C@@H](CC(=O)O)C(=O)N[C@H](C(=O)N[C@@H](CC(=O)O)C(=O)N[C@H](C(=O)NCC(=O)N[C@@H](CCCCN)C(=O)N[C@@H](CCCCN)C(=O)N[C@@H](CCCNC(=N)N)C(=O)O)[C@@H](C)O)C(C)C` [B05751] (H-LYETILILLFLDVDTGKKR-OH; N-terminus and C-terminus assumed): in the series “peptide solubility”, the peptide solubility result is listed as “increased peptide solubility”.

The record behind these values is patent US8680046B2, “Inhibitors of viral integrase and methods of use” (Integratech Proteomics, LLC, priority 2009, dated 2014).
